Laboratory results reported in patent US11491206B1, “Compositions and methods for the treatment of trail-resistant cancer” (Duke University, priority 2018, dated 2022).
Values joined by “and” are separate entries in the source; they are usually repeats but may differ in a detail not shown here. Equal entries are not always repeated.

What was measured:
CRC119 = assay: Single-agent cytotoxicity in patient-derived CRC119; type: cell-based, human; conditions: CRC119s
Procedure: (§1) For single-agent cytotoxicity evaluation, DRA and ELP-DRA fusion proteins were tested in vitro using a colorimetric formazan assay (MTT) as follows. […] The cells were then treated with 10 μL additional media containing a serial dilution of the drug(s) of interest. All treatments were done in triplicate. […] The inhibition of cell viability was determined using measurements of the absorbance at 490 nm, which is the absorbance maximum of the formazan product. The dose-response curves were generated by plotting inhibition as a function of compound concentration.

RKO cells [1] = assay: Flow cytometry Annexin V apoptosis quantification in RKO; type: cell-based, human; conditions: for % positive Annexin V+: single replicate, listed as SA
Procedure: Flow Cytometry for Annexin-V Apoptosis Quantification. Cells were seeded in six-well plates overnight. The next day, cells were treated with the indicated amount of drug(s) or vehicle control (DMSO). Incubation time was 15 h for etoposide or 48 h for DRA alone, or DRA with sensitizers. To prepare samples for flow cytometry, each well of cells was washed twice with ice-cold PBS and resuspended in 1× annexin V binding buffer (10 mM HEPES, 140 mM NaCl, 2.5 mM CaCl2, pH 7.4) BD Biosciences). Allophycocyanin (APC)-conjugated Annexin V was used to measure surface exposure of phosphatidylserine and 7-aminoactinomycin D (7-AAD) was used as a viability probe (BD Biosciences). Cell samples were analyzed at 20,000 counts/sample using BD FACSVantage SE.

mouse death receptor = mouse death receptor (Mus musculus, UniProt Q9QZM4); conditions: previous studies; cited from earlier work
mouse death receptor, sequence (Q9QZM4 53-381): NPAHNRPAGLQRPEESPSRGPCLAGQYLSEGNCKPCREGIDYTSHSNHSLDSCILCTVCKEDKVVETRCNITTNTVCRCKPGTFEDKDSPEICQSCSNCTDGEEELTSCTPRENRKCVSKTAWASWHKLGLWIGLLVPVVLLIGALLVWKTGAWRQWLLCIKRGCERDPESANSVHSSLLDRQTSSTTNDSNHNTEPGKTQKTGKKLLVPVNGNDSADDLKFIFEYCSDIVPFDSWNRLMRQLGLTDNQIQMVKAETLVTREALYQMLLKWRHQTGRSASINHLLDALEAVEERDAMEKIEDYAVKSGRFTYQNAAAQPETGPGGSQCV

[2] = system: HCT116, HCT15, Colo205, DLD-1, and Lovo; assay: Single-agent cytotoxicity (MTT) in TRAIL-sensitive CRC cell lines; type: cell-based, human
Procedure: as §1

HT29 cells = assay: Single-agent cytotoxicity (MTT) in HT29; type: cell-based, human
Procedure: as §1

T84 = assay: Single-agent cytotoxicity (MTT) in T84; type: cell-based, human
Procedure: as §1

[3] = in vivo; cited from earlier work
RKO cells [4] = assay: Single-agent cytotoxicity (MTT) in RKO; type: cell-based, human
Procedure: as §1

CRC12x = assay: Single-agent cytotoxicity in patient-derived CRC12x; type: cell-based, human
Procedure: as §1

CRC247 = assay: Single-agent cytotoxicity in patient-derived CRC247; type: cell-based, human
Procedure: as §1

Molecule	EC50 (CRC119) [nM]	Average % positive Annexin V+ (RKO cells [1]; 0.5 pM SA) [%]	% positive Annexin V+ (RKO cells [1]; 0.5 pM SA)	Average % positive Annexin V+ (RKO cells [1]; 1 pM SA) [%]	% positive Annexin V+ (RKO cells [1]; 1 pM SA)	interaction with mouse death receptor (mouse death receptor)	increase in potency of DRA compared to TRAIL (T/D fold, EC50-TRAIL/EC50-DRA) ([2]; TRAIL-sensitive cell lines)	EC50 ([2]; all tested TRAIL-sensitive cell lines)	cytotoxicity (HT29 cells)	cytotoxicity (T84)	half-life [3]	EC50 (RKO cells [4]) [nM]	EC50 (CRC12x) [nM]	cytotoxicity (CRC247)	induction of cell death ([2]; sensitive cell lines)
DRA: hexameric protein of Tn3 fibronectin type III domains (SEQ ID NO: 1) binding DR5, joined by glycine-serine linkers (protein) GAIEVKDVTDTTALITWAKPWVDPPPLWGCELTYGIKDVPGDRTTIDLQQKHTAYSIGNLKPDTEYEVSLICFDPYGMRSKPAKETFTTGGGGSGGGGSGGGGSGAIEVKDVTDTTALITWAKPWVDPPPLWGCELTYGIKDVPGDRTTIDLQQKHTAYSIGNLKPDTEYEVSLICFDPYGMRSKPAKETFTTGGGGSGGGGSGGGGSGAIEVKDVTDTTALITWAKPWVDPPPLWGCELTYGIKDVPGDRTTIDLQQKHTAYSIGNLKPDTEYEVSLICFDPYGMRSKPAKETFTTGGGGSGGGGSGGGGSGAIEVKDVTDTTALITWAKPWVDPPPLWGCELTYGIKDVPGDRTTIDLQQKHTAYSIGNLKPDTEYEVSLICFDPYGMRSKPAKETFTTGGGGSGGGGSGGGGSGAIEVKDVTDTTALITWAKPWVDPPPLWGCELTYGIKDVPGDRTTIDLQQKHTAYSIGNLKPDTEYEVSLICFDPYGMRSKPAKETFTTGGGGSGGGGSGGGGSGAIEVKDVTDTTALITWAKPWVDPPPLWGCELTYGIKDVPGDRTTIDLQQKHTAYSIGNLKPDTEYEVSLICFDPYGMRSKPAKETFTTGGGGSGGGGSGGGGSHHHHHHHH	0.0261	4.90	5.32% and 5.86% and 3.53%	6.01	6.97% and 5.22% and 5.85%	no interaction	70-1700 times	picomolar range	induces cytotoxicity	induces cytotoxicity	approximately 36 min	> 100	0.0098	highly resistant	–
DRA monomer: single Tn3 type III fibronectin domain engineered to bind DR5 (protein) GAIEVKDVTDTTALITWAKPWVDPPPLWGCELTYGIKDVPGDRTTIDLQQKHTAYSIGNLKPDTEYEVSLICFDPYGMRSKPAKETFTT	–	–	–	–	–	–	–	–	–	–	–	–	–	–	do not induce cell death
